Values joined by “and” are separate entries in the source; they are usually repeats but may differ in a detail not shown here. Equal entries are not always repeated.
Assays:
[1] = biological target: HA-Cdt1 phosphomimetic (2E3D) (human) (UniProt Q9H211); assay: co-IP
[2] = biological target: GFP-tagged Cdt1 (92-546 a. a.) (human) (UniProt Q9H211); assay: BLI
[3] = biological target: GFP-tagged Cdt1 deletion fragment 92-410 (human) (UniProt Q9H211); assay: BLI
[4] = biological target: GFP-Cdt1^2E3D (human) (UniProt Q9H211); assay: BLI
[5] = biological target: GFP-tagged Cdt1 deletion fragment 410-546 (human) (UniProt Q9H211); assay: BLI

% reduction of co-precipitated Ska1 against Cdt1-WT [1]	Kd [2]	Kd [3]	Kd [4]	Kd [5]	Substance
50% and 55%	–	–	–	–	SKA1 (endogenous) (from UniProt Q96BD8 1-255) (natural protein)
–	70 nM	220 nM	185 nM	360 nM	Ska1 complex (analyte of the BLI experiments) (from UniProt Q96BD8;Q8WVK7)

— article doi:10.1101/2022.05.05.490787
